Numbered stars: 1 amine (or outer) side, 2 acyl side, 3 side chain; on linkers, the order of the positions; unused ones are H or OH. Side chains are listed from the residue outwards. Ends that are not written are not given here. * marks the point of attachment. γGlu = O=C(O)[C@H](CCC(=O)[*:2])N[*:1]; Palmitoyl = CCCCCCCCCCCCCCCC(=O)*
T1: human glucose-dependent insulinotropic peptide (gastric inhibitory polypeptide) receptor (human, UniProt P48546 22-466)
T1 sequence (looked up): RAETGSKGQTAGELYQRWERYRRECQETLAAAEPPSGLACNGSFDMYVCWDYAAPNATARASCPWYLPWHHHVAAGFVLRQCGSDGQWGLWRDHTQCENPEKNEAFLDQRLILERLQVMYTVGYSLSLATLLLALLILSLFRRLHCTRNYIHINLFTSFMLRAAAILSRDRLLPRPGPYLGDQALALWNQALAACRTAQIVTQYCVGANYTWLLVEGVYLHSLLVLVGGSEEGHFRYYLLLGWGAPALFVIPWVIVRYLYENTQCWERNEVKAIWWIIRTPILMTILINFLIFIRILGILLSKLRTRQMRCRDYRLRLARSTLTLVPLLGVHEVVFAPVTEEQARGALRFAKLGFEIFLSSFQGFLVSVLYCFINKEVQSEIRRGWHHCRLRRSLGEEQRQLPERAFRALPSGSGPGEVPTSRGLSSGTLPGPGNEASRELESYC

B1: g701 (peptide)
peptide: HSQGTFTSDYSK([γGlu-Palmitoyl])YLDSRRAQDFVQWLERGG-NH2
modifications: N-terminus assumed
SMILES: CCCCCCCCCCCCCCCC(=O)N[C@@H](CCC(=O)NCCCC[C@H](NC(=O)[C@H](CO)NC(=O)[C@H](Cc1ccc(O)cc1)NC(=O)[C@H](CC(=O)O)NC(=O)[C@H](CO)NC(=O)[C@@H](NC(=O)[C@H](Cc1ccccc1)NC(=O)[C@@H](NC(=O)CNC(=O)[C@H](CCC(N)=O)NC(=O)[C@H](CO)NC(=O)[C@@H](N)Cc1c[nH]cn1)[C@@H](C)O)[C@@H](C)O)C(=O)N[C@@H](Cc1ccc(O)cc1)C(=O)N[C@@H](CC(C)C)C(=O)N[C@@H](CC(=O)O)C(=O)N[C@@H](CO)C(=O)N[C@@H](CCCNC(=N)N)C(=O)N[C@@H](CCCNC(=N)N)C(=O)N[C@@H](C)C(=O)N[C@@H](CCC(N)=O)C(=O)N[C@@H](CC(=O)O)C(=O)N[C@@H](Cc1ccccc1)C(=O)N[C@H](C(=O)N[C@@H](CCC(N)=O)C(=O)N[C@@H](Cc1c[nH]c2ccccc12)C(=O)N[C@@H](CC(C)C)C(=O)N[C@@H](CCC(=O)O)C(=O)N[C@@H](CCCNC(=N)N)C(=O)NCC(=O)NCC(N)=O)C(C)C)C(=O)O
B2: g326 (peptide)
peptide: HSQGTFTSDYSKYLDSRRAQDFVQWLVAGGGGGGK(Palmitoyl)-NH2
modifications: N-terminus assumed
SMILES: CCCCCCCCCCCCCCCC(=O)NCCCC[C@H](NC(=O)CNC(=O)CNC(=O)CNC(=O)CNC(=O)CNC(=O)CNC(=O)[C@H](C)NC(=O)[C@@H](NC(=O)[C@H](CC(C)C)NC(=O)[C@H](Cc1c[nH]c2ccccc12)NC(=O)[C@H](CCC(N)=O)NC(=O)[C@@H](NC(=O)[C@H](Cc1ccccc1)NC(=O)[C@H](CC(=O)O)NC(=O)[C@H](CCC(N)=O)NC(=O)[C@H](C)NC(=O)[C@H](CCCNC(=N)N)NC(=O)[C@H](CCCNC(=N)N)NC(=O)[C@H](CO)NC(=O)[C@H](CC(=O)O)NC(=O)[C@H](CC(C)C)NC(=O)[C@H](Cc1ccc(O)cc1)NC(=O)[C@H](CCCCN)NC(=O)[C@H](CO)NC(=O)[C@H](Cc1ccc(O)cc1)NC(=O)[C@H](CC(=O)O)NC(=O)[C@H](CO)NC(=O)[C@@H](NC(=O)[C@H](Cc1ccccc1)NC(=O)[C@@H](NC(=O)CNC(=O)[C@H](CCC(N)=O)NC(=O)[C@H](CO)NC(=O)[C@@H](N)Cc1c[nH]cn1)[C@@H](C)O)[C@@H](C)O)C(C)C)C(C)C)C(N)=O
B3: g318 (peptide)
peptide: HSQGTFTSDYSKYLDSRRAQDFVQWLVAGGSSGGSSK(Palmitoyl)-NH2
modifications: N-terminus assumed
SMILES: CCCCCCCCCCCCCCCC(=O)NCCCC[C@H](NC(=O)[C@H](CO)NC(=O)[C@H](CO)NC(=O)CNC(=O)CNC(=O)[C@H](CO)NC(=O)[C@H](CO)NC(=O)CNC(=O)CNC(=O)[C@H](C)NC(=O)[C@@H](NC(=O)[C@H](CC(C)C)NC(=O)[C@H](Cc1c[nH]c2ccccc12)NC(=O)[C@H](CCC(N)=O)NC(=O)[C@@H](NC(=O)[C@H](Cc1ccccc1)NC(=O)[C@H](CC(=O)O)NC(=O)[C@H](CCC(N)=O)NC(=O)[C@H](C)NC(=O)[C@H](CCCNC(=N)N)NC(=O)[C@H](CCCNC(=N)N)NC(=O)[C@H](CO)NC(=O)[C@H](CC(=O)O)NC(=O)[C@H](CC(C)C)NC(=O)[C@H](Cc1ccc(O)cc1)NC(=O)[C@H](CCCCN)NC(=O)[C@H](CO)NC(=O)[C@H](Cc1ccc(O)cc1)NC(=O)[C@H](CC(=O)O)NC(=O)[C@H](CO)NC(=O)[C@@H](NC(=O)[C@H](Cc1ccccc1)NC(=O)[C@@H](NC(=O)CNC(=O)[C@H](CCC(N)=O)NC(=O)[C@H](CO)NC(=O)[C@@H](N)Cc1c[nH]cn1)[C@@H](C)O)[C@@H](C)O)C(C)C)C(C)C)C(N)=O
B4: g728 (peptide)
peptide: HSQGTFTSDYSK([γGlu-Palmitoyl])YLDSRRAQDFVQWLVAGG-NH2
modifications: N-terminus assumed
SMILES: CCCCCCCCCCCCCCCC(=O)N[C@@H](CCC(=O)NCCCC[C@H](NC(=O)[C@H](CO)NC(=O)[C@H](Cc1ccc(O)cc1)NC(=O)[C@H](CC(=O)O)NC(=O)[C@H](CO)NC(=O)[C@@H](NC(=O)[C@H](Cc1ccccc1)NC(=O)[C@@H](NC(=O)CNC(=O)[C@H](CCC(N)=O)NC(=O)[C@H](CO)NC(=O)[C@@H](N)Cc1c[nH]cn1)[C@@H](C)O)[C@@H](C)O)C(=O)N[C@@H](Cc1ccc(O)cc1)C(=O)N[C@@H](CC(C)C)C(=O)N[C@@H](CC(=O)O)C(=O)N[C@@H](CO)C(=O)N[C@@H](CCCNC(=N)N)C(=O)N[C@@H](CCCNC(=N)N)C(=O)N[C@@H](C)C(=O)N[C@@H](CCC(N)=O)C(=O)N[C@@H](CC(=O)O)C(=O)N[C@@H](Cc1ccccc1)C(=O)N[C@H](C(=O)N[C@@H](CCC(N)=O)C(=O)N[C@@H](Cc1c[nH]c2ccccc12)C(=O)N[C@@H](CC(C)C)C(=O)N[C@H](C(=O)N[C@@H](C)C(=O)NCC(=O)NCC(N)=O)C(C)C)C(C)C)C(=O)O
B5: g747 (peptide)
peptide: HSQGTFTSDYSKYLDSRRAQDFVQWLEAGGK([γGlu-Palmitoyl])-NH2
modifications: N-terminus assumed
SMILES: CCCCCCCCCCCCCCCC(=O)N[C@@H](CCC(=O)NCCCC[C@H](NC(=O)CNC(=O)CNC(=O)[C@H](C)NC(=O)[C@H](CCC(=O)O)NC(=O)[C@H](CC(C)C)NC(=O)[C@H](Cc1c[nH]c2ccccc12)NC(=O)[C@H](CCC(N)=O)NC(=O)[C@@H](NC(=O)[C@H](Cc1ccccc1)NC(=O)[C@H](CC(=O)O)NC(=O)[C@H](CCC(N)=O)NC(=O)[C@H](C)NC(=O)[C@H](CCCNC(=N)N)NC(=O)[C@H](CCCNC(=N)N)NC(=O)[C@H](CO)NC(=O)[C@H](CC(=O)O)NC(=O)[C@H](CC(C)C)NC(=O)[C@H](Cc1ccc(O)cc1)NC(=O)[C@H](CCCCN)NC(=O)[C@H](CO)NC(=O)[C@H](Cc1ccc(O)cc1)NC(=O)[C@H](CC(=O)O)NC(=O)[C@H](CO)NC(=O)[C@@H](NC(=O)[C@H](Cc1ccccc1)NC(=O)[C@@H](NC(=O)CNC(=O)[C@H](CCC(N)=O)NC(=O)[C@H](CO)NC(=O)[C@@H](N)Cc1c[nH]cn1)[C@@H](C)O)[C@@H](C)O)C(C)C)C(N)=O)C(=O)O
B6: g320 (peptide)
peptide: HSQGTFTSDYSKYLDSRRAQDFVQWLVAGGPSSGAPPPSK(Palmitoyl)-NH2
B7: g315 (peptide)
peptide: HSQGTFTSDYSKYLDSRRAQDFVQWLVAGGGGGG-NH2
B8: g402 (peptide)
peptide: HSQGTFTSDYSKYLDSRRAQDFVQWLVAGGSGSGSG-NH2
B9: g325 (peptide)
peptide: HSQGTFTSDYSKYLDSRRAQDFVQWLVAGGGGGGK-NH2
B10: g316 (peptide)
peptide: HSQGTFTSDYSKYLDSRRAQDFVQWLVAGGSSGGSS-NH2
B11: g317 (peptide)
peptide: HSQGTFTSDYSKYLDSRRAQDFVQWLVAGGSSGGSSK-NH2
B12: g702 (peptide)
peptide: HSQGTFTSDYSK([γGlu-Palmitoyl])YLDSRRAQDFVQWLVAGG-NH2
modifications: N-terminus assumed
SMILES: CCCCCCCCCCCCCCCC(=O)N[C@@H](CCC(=O)NCCCC[C@H](NC(=O)[C@H](CO)NC(=O)[C@H](Cc1ccc(O)cc1)NC(=O)[C@H](CC(=O)O)NC(=O)[C@H](CO)NC(=O)[C@@H](NC(=O)[C@H](Cc1ccccc1)NC(=O)[C@@H](NC(=O)CNC(=O)[C@H](CCC(N)=O)NC(=O)[C@H](CO)NC(=O)[C@@H](N)Cc1c[nH]cn1)[C@@H](C)O)[C@@H](C)O)C(=O)N[C@@H](Cc1ccc(O)cc1)C(=O)N[C@@H](CC(C)C)C(=O)N[C@@H](CC(=O)O)C(=O)N[C@@H](CO)C(=O)N[C@@H](CCCNC(=N)N)C(=O)N[C@@H](CCCNC(=N)N)C(=O)N[C@@H](C)C(=O)N[C@@H](CCC(N)=O)C(=O)N[C@@H](CC(=O)O)C(=O)N[C@@H](Cc1ccccc1)C(=O)N[C@H](C(=O)N[C@@H](CCC(N)=O)C(=O)N[C@@H](Cc1c[nH]c2ccccc12)C(=O)N[C@@H](CC(C)C)C(=O)N[C@H](C(=O)N[C@@H](C)C(=O)NCC(=O)NCC(N)=O)C(C)C)C(C)C)C(=O)O
B13: g840 (peptide)
peptide: HSQGTFTSDYSKYLDSRRAQDFVQWLEAGG-NH2
B14: g319 (peptide)
peptide: HSQGTFTSDYSKYLDSRRAQDFVQWLVAGGPSSGAPPPSK-NH2

Key:
Assay in all cases: cell-based or functional assay
human GLP-1 receptor = human GLP-1 receptor (human, UniProt P43220 24-463)
human glucagon receptor = human glucagon receptor (human, UniProt P47871 26-477)
[1] = molecular target: T1, human glucose-dependent insulinotropic …

Sequence of human glucagon receptor (P47871 26-477): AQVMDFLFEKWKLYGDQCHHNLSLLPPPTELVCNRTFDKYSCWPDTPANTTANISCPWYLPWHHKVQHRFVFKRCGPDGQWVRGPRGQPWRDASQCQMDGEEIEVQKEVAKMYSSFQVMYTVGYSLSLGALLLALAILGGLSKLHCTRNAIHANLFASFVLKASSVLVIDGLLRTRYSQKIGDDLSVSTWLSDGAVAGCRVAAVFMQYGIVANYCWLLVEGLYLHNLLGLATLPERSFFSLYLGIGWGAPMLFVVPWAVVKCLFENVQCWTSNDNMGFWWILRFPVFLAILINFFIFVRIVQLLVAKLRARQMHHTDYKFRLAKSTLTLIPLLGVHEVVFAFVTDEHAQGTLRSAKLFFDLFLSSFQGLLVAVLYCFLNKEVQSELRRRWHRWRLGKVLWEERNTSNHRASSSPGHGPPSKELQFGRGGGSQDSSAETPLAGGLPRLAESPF

Binder	cAMP EC50 (assay 1) (human GLP-1 receptor) [nM]	cAMP EC50 (assay 1) (human glucagon receptor) [nM]	cAMP EC50 (assay 1) [1] [nM]
B1	7.4	3.83	
B2	0.0247	0.00282	12.6
B3	1.14	9.04	
B4		2.44	395
B5	3.16	0.0942	1040
B6	0.00938	0.0032	1.01
B7	0.0273	0.00504	19.7
B8	0.0857	0.0596	
B9	0.0261	0.0103	
B10	0.0314	0.0106	3.65
B11	2.63		
B12		1.49	
B13	0.145	0.0053	102
B14	0.0361	0.0104	

— US20220098265A1 (MEDIMMUNE LIMITED, priority 2012, published 2022)
